target: T1, RpoN (sigma-54) (Vibrio parahaemolyticus RIMD2210633) (UniProt Q87LE2); assay: EMSA; details: EMSA: 20 µl with 10 ng FAM probe, 4 µl EMSA buffer (10 mM NaCl, 0.1 mM DTT, 0.1 mM EDTA, 10 mM Tris pH 7.4), 1 µl poly-dIdC, 25 °C 0.5 h, 6% native PAGE
T1 sequence: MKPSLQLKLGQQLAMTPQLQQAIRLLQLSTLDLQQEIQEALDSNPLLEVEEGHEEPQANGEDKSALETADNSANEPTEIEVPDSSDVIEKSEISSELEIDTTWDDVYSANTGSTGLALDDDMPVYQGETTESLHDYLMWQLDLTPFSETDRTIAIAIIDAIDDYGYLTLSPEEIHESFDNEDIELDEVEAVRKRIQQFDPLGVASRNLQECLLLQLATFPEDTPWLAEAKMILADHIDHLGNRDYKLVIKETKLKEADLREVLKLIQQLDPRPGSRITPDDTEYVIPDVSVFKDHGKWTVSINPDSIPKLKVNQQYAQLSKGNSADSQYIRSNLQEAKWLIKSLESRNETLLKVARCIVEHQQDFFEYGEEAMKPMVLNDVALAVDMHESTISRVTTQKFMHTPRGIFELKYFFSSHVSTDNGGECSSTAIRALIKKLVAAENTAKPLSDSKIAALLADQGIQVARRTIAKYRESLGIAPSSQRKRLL

Row | Sequence | binding
1 | TGCCTGCAGGTCGACGATTCTCTTTGCCTTAATCTTATGCCGATCAAAGCACATCGGAAACTAACGCTAAAACGGTAGCAAACCCCAACTTAGTGGAATGCAAGTCACTAAAAATCATCAATTTTGATCTTTTTTAGAAAATTTTTAATTTTCAAATTAATCATTAGTGGCAAGCGACCGCCTCTAGTTAGTGACTAGGGAATATCCCAAGGCCTGAAAGAAATAGTGATAAACTAAGGAGACTAAG (double strand) [lafA promoter] | binds
2 | TGCCTGCAGGTCGACGATTTTTGGACTCAACGTAACATTTTTCAATTTTGCCTCTCGTCACATCGCGTGAGTATCGAGTACAAAAATAAAATTTAATGTTCACCACATCCTTGTCGCCTATTGGATTTAGAACATGATGATGAGGACCACAGC (double strand) [flgM promoter] | no binding
3 | TGCCTGCAGGTCGACGATATCTTAATTCGCACCACTTTAGTGCAGACGTAGATCATTTTGGTGCAATCATTTGCACCAAACTAGCATCTAAAAACACAATTCATTGAAATTAATGGAATATTTTTTTTGGCACGGTTTTGGCTTTAGTAAACACAGCATCGATTAATGAAAAGTCAAAAAGATTAATCAATGCCGGGTTCATGAATATTTCATAAGTCGAGCTTTTACCGCTTATTAACACTGGAGGTTATCCAAG (double strand) [VP0121 promoter] | binds
4 | TGCCTGCAGGTCGACGATGTGGAATGTAATGGCCGACGCAAAGAAATGGCAGAGAAGTTGGGCATAAGCCCGCGTACTCTGCGCTACAAACTTGCCAAAATGCGTGACGCGGGTATAGATATTCCGAGTTAGGTTTCACACGCGTAGCCATAAGACAAAAGTGTGAGTAAACTATACAGCTGGCGTCTTGTCAATAATTAGTTTAAATAGATAGTCAAACTTTTGGCTCAGAGGTGATA (double strand) [ΔfliE promoter (RpoN site deleted)] | no binding
5 | TGCCTGCAGGTCGACGATCCTTGTTTTATCCCATGGTCAGCGGGCGCGAAGGCGGCACCGGACTTGGGTTGTCCATCTCACAAAATTTGATCGACCAGCACAACGGAAAAATCGACGTTGAAAGCTGGCCTGGCCACACCACTTTTACAATTTATTTGCCGATTTGACCTCACGAATGGATTTCGTTGAGCGCCAATTTACGGTTTTTGCTGCAAGGATTAGTAC (double strand) [VP0118 promoter] | no binding
6 | TGCCTGCAGGTCGACGATCTGCAAGTGAAGCAGAAAATCGAAAGTATGTGACCTTTTGGGGTTGCCGCGTACGCGAATCATTGAGGCTTGCCATCGTGCAAGCCTTTATTTTACCTGAATTTACTACTCTAAATCCCACTTGGCACATCTTTTGCTTTTACTTGTCTAGGTGATCGGTATTTACCGATCTTATTTCGTTTTTGGGGGCAGGTATGGCGTCAGATCTTCTG (double strand) [flgK promoter] | no binding
7 | TGCCTGCAGGTCGACGATGAGCTGCTGATATGCTGGGTATGCGCCGTACAACGTTGGTTGAGAAAATGCGCAAGTATAATTTGCAGCGTTAGATCGAGCTTCAGTTCAATCACAAAAGTTATCTTTTCTGACATTAAAATCAGACATTTCTCGGTGTCAACTTATTGTCGATAACATAACGTCATGATAAATATAAAAATAGCTTGGTACGCTAATTGCTTACCAAGCTATTTTACTTTTTAGTGGCGATATTTCGACAGGCAGTGA (double strand) [flaL promoter] | no binding
8 | TGCCTGCAGGTCGACGATGATATTTTATTGGCATGACATTTGCTATTTGTTGCTCAATACTAATCTGGTTGAAGTTAGCACGGACGCACTGCGTAGTATTCATCGCCTATAGATGGCGGAATAAGAATGCTCATTGATAAGTTAATCAGCAGAATCTCCGGCGCTAACTACACTAAGAGATGGAAAAGACTATCCATGTTCATAAATGGAATTGAGC (double strand) [VP1510 promoter] | no binding
9 | TTTTGGACCATCCGTCAGTAAATCAAACCCTTCTGGATGTATCAACTGCAGCGGTAACACTTGCGCCAATTGCGCCAATTTTTGCCCAGATTGACCGCCTATTTTAACCTCTGTCGAGCCATCGCGCTGCTTATTAATGCCGATAGGTAGCTCAAATTGATCCGAGTTCAAAAAACGACCATGAACAAACAGTTCATCACACTCATTTTGAATCACACGACCAGTGAGAGAGCTTTTGAATGAGCGACCATGCCCGAGTAAATAAATCGCTTCTAGGACAATCGTCGACCTGCAGGCA (double strand) [gyrB promoter] | no binding
10 | TGCCTGCAGGTCGACGATGTGGAATGTAATGGCCGACGCAAAGAAATGGCAGAGAAGTTGGGCATAAGCCCGCGTACTCTGCGCTACAAACTTGCCAAAATGCGTGACGCGGGTATAGATATTCCGAGTTAGGTTTCACACGCGTAGCCATAAGACAAAAGTGTGAGTAAACTATACAGCTGGCGTCTTATGGCACATAAATTGCTGTGTCAATAATTAGTTTAAATAGATAGTCAAACTTTTGGCTCAGAGGTGATA (double strand) [fliE promoter] | binds
11 | TGCCTGCAGGTCGACGATTCTGTAAATAATAATTGAGAGTTGCTTCATAATAACTATTATTAGTTATAAATATCGCTTAATTTAAATCTAATTTAAAGATATAAAGGAGCGTATTTAAAATGAAGTTTTTGATACATCAATCATTAATTATCATTATTCAGATAATTTAATTAATACGAAATATGTCAATTAATAATGCTCTAGGAGATTAGC (double strand) [hcp2 promoter] | binds
12 | TGCCTGCAGGTCGACGATCGCCGGAACATCGTCATTAATCGTACAAAAAGCAAAATTAAGAAAAATATAAAACAATCAATGGATTGTGCTGTTATTTAGCTTTGAGTCATTATTTTGGCGTTGATTTTGGTACATAGATTGCTTAAGTCGACTAATTATCAACTATACCTAAACTTTTAGGCGAAAGTGGTCGCGTATAAACATTAGACATACGTATTAAAGTGCGTATTCGCGTGACGCTTCAATTCGATTGAGATACCTCGCAGT (double strand) [flhA promoter] | no binding
13 | TGCCTGCAGGTCGACGATTTAATCAACACGTCACATTCCTAAAATGAATTAAATATTTTCAGCTTTTTAGTCGCCTTGTCTTATAGGGAAACACTAGATGTTTTCGAGAGGAAGGCGGAACACATAAGGTGGAAAATACACTTCCTCTCAAATTTAAATAGTATCGCAAGTCAATGTTTTAAAAGAATATTCAAGTTAGGCACGTATCTTGCGATAAGACATACTTTCAAGGCATAGAGTTACGCCAATTACCAATGAGAGAGGGAGTAAGCTC (double strand) [lafB promoter] | no binding
14 | TGCCTGCAGGTCGACGATGTCCTGTCGAAAGAATTCCTAATAACAGTATCCACTTTGAGGAAATTAGAGTTTTCCCCCTAATTTTTTTGCTTTCCGTAAACCGGAAGTTTGGTTTCCACTCTTGTTTGTAAGTCATTGATAAATATAAATAAAATTTATGGCACGTATCTTGTTTGTATCTTGGCGTATTCGAGCCGACTGTAAGGAAAGATGCATGGCGATCACATTTGAAAATGCTTTAGGTGTACATCCAG (double strand) [flgB2 promoter] | binds
15 | TGCCTGCAGGTCGACGATCTTGGCTTGATAACATCATGACATTCATCTGATGCTTAGCCTGAAAACACCTCAGTTCAGGCTAAGCATGCTTTGATCTCTGGTTTGCCGCTGTTGCCGCCACATGGATCAAAATCTTGCCTCCCTTTGCAGTTTTTTTTCATTGAATATCCTTCTTGATTGCCTTTAATCTCATTCAAGTTTTTGATAAATAAGTTTATTTTTATTTTGGCATAACTATTGCTTTTACTCCGGAAGTACAGAGACTTTTTTGGAGTAA (double strand) [flgF promoter] | no binding
16 | GTGCCTTGTCAAAAGATATAGCCATGTTTGCCTCTACAATTAAGAACTGACCGTTATTAATAACTAAAAAACCGGAAACGCTAAAACACCTATCAGCTATTGACGTTTTAGATTGCAATAAGCAAGCCAAAGTAACTGGAATGTCGTATCACTTCGCTTACTTGAATAAAGATACACCCTGCAGAGGGAGCAGGGCAAAGTCCGACAACAGATTAGCGAGGGGAAACTCGAAATCTCATCTCATATAGACAAAATCGTCGACCTGCAGGCA (double strand) [ΔflgB promoter (RpoN site deleted)] | no binding
